Assay results as given in patent US20240190960A1 (Chugai, published 2024).

T1: Biotinylated human CD3εδ heterodimer (Fc-fused human CD3ε / Fc-fused human CD3δ) (human, biotin on the Avi tag (BirA))
T1 chain 1: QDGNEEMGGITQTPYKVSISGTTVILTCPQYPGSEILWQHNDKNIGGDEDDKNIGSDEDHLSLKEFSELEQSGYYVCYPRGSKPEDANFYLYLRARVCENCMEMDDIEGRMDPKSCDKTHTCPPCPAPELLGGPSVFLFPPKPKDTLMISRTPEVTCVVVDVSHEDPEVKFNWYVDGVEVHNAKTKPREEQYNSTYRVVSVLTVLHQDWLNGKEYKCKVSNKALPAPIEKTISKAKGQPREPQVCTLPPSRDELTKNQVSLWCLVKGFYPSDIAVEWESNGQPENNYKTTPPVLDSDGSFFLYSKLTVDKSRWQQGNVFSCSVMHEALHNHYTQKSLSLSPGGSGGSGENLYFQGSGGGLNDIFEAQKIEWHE
T1 chain 2: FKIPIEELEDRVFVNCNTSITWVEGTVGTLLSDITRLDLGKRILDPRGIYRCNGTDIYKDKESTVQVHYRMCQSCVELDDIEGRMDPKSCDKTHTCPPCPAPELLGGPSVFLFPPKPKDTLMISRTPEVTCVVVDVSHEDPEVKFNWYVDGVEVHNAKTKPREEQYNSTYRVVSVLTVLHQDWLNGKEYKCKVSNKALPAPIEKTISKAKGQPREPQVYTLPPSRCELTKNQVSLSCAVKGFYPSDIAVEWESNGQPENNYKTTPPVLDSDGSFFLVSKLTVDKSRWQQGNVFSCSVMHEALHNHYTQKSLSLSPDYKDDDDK

B1: IC17 one arm (antibody, human IgG1, kappa, L234A L235A, N297A)
heavy chain (IC17Hdk-pE22Hh): QVQLQQSGPQLVRPGASVKISCKASGYSFTSYWMHWVNQRPGQGLEWIGMIDPSYSETRLNQKFKDKATLTVDKSSSTAYMQLSSPTSEDSAVYYCALYGNYFDYWGQGTTLTVSSASTKGPSVFPLAPSSKSTSGGTAALGCLVKDYFPEPVTVSWNSGALTSGVHTFPAVLQSSGLYSLSSVVTVPSSSLGTQTYICNVNHKPSNTKVDKKVEPKSCDKTHTCPPCPAPEAAGGPSVFLFPPKPKDTLMISRTPEVTCVVVDVSHEDPEVKFNWYVDGVEVHNAKTKPREEQYASTYRVVSVLTVLHQDWLNGKEYKCKVSNKALPAPIEKTISKAKGQPREPQVYTLPPSRCELTKNQVSLSCAVKGFYPSDIAVEWESNGQPENNYKTTPPVLDSDGSFFLVSKLTVDKSRWQQGNVFSCSVMHEALHNHYTQKSLSLSPDYKDDDDK
light chain (IC17L-k0): DIQMTQSSSSFSVSLGDRVTITCKASEDIYNRLAWYQQKPGNAPRLLISGATSLETGVPSRFSGSGSGKDYTLSITSLQTEDVATYYCQQYWSTPYTFGGGTKLEVKRTVAAPSVFIFPPSDEQLKSGTASVVCLLNNFYPREAKVQWKVDNALQSGNSQESVTEQDSKDSTYSLSSTLTLSKADYEKHKVYACEVTHQGLSSPVTKSFNRGEC
antibody fragment having no variable region (Kn010): not shown
notes: also called negative control anti-KLH antibody IC17 one arm (IC17Hdk-pE22Hh/IC17L-k0//Kn010)
B2: CLA0334 Fab fragment (from CLA0334VH-F760mnP17/CLA0334VL-k0C) (Fab, V domains shown)
VH: QEQLEESGGDLVKPEGSLTLTCTASGFSLSVSYWICWVRQAPGKGLEWIACIYAGSTGSTWYANWAKGRFTISKTSSTTVTLQMTSLTAADTATYFCARDSGWNAFDLWGPGTLVTVSS
VL: DVVMTQTPASVSAAVGGTVTIKCQASQSIGSNLAWYQQKSGHPPNLLIYEASGLASGVPLRFSGSGSGTQFTLTISDLECADAATYYCQSYYYSPSVSVHYAFGGGTEVVVKR
notes: Fab prepared from the full antibody with the Pierce Fab Preparation Kit; also called clamping antibody CLA0334

Assays:
[1] = molecular target: T1, Biotinylated human CD3εδ heterodimer …; assay: BLI (Octet RED384), 37 C; biotinylated CD3εδ on streptavidin sensor, one-arm antibody in solution for 120 s
Method: (§1) Using an Octet RED 384 (ForteBio), a streptavidin sensor (ForteBio) was reacted with CD3εδ prepared at 0.2 μM in ACES at 37° C. for 300 seconds. […] Response values were extracted every three seconds, and graphs were depicted using Microsoft Excel 2013 (Microsoft).

[2] = molecular target: T2, CD3ε epitope-fused CE115HA146 (CE115HAGP13-rabIgG/GLS3000-rabk); assay: SPR (Biacore T200), ligand captured on protein A, Fab 0-400 nM as analyte, 37 C
T2 construct: stands for the antigen/antibody complex; Rabbit constant regions; also called CE115HAPG13
T2 sequence (heavy, as listed by the source, chain 1 of 2): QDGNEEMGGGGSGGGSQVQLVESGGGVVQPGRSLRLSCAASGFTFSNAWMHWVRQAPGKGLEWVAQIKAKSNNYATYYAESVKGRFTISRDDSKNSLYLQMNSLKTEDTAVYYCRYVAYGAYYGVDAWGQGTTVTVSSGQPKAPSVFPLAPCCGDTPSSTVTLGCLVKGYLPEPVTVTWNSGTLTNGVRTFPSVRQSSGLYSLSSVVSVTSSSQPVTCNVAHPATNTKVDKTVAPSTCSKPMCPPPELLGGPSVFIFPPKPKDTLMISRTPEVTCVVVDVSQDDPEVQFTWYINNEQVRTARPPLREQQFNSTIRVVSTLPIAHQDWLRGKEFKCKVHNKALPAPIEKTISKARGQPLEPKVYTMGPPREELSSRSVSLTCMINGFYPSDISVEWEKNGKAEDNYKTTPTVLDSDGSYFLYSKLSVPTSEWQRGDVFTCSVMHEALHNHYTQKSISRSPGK
T2 sequence (light, as listed by the source, chain 2 of 2): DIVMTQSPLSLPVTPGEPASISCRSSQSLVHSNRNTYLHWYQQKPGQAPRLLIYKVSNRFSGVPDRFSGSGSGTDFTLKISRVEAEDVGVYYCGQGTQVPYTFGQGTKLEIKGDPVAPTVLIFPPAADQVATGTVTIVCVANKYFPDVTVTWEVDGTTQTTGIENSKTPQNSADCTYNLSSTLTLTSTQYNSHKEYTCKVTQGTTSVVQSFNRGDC
Method: (§2) SuRe protein A (GE Healthcare) prepared at 25 μg/mL using Acetate4.5 (GE Healthcare) was immobilized on sensor chip CM4 at approximately 1000 RU per flow cell using an amine coupling kit (GE Healthcare).
(§3) The sensor chip was regenerated by passing Glycine1.5 and 25 mM NaOH, each at a flow rate of 30 μL/min for 15 seconds. The dissociation constant KD (M) was calculated based on the association rate constant ka (1/Ms) and the dissociation rate constant kd (1/s), which are kinetic parameters calculated from the sensorgram obtained by the measurement. Biacore T200 Evaluation Software (GE Healthcare) was used for calculation of each parameter.

[3] = molecular target: T3, CD3ε epitope-fused CE115HA056 (CE115HAGP12-rabIgG/GLS3000-rabk); assay: as above
T3 construct: rabbit constant regions; also called CE115HAPG12
T3 sequence (heavy, as listed by the source, chain 1 of 2): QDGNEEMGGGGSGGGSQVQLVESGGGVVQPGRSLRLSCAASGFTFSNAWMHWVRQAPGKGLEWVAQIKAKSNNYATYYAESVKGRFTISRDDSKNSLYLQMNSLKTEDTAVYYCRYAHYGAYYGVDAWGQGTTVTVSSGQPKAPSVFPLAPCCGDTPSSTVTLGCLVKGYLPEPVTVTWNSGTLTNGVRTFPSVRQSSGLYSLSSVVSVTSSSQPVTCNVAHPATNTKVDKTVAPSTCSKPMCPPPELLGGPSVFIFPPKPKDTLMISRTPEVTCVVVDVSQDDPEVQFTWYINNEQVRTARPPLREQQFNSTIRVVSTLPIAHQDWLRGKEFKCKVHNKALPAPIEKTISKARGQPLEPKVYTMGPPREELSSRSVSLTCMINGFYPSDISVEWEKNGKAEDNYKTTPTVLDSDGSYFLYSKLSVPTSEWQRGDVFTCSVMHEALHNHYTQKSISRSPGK
T3 sequence (light, as listed by the source, chain 2 of 2): as the sequence (light, as listed by the source, chain 2 of 2) above
Method: as §2, §3

[4] = molecular target: T1, Biotinylated human CD3εδ heterodimer …; assay: BLI (Octet RED384); CD3εδ on streptavidin sensor, IC17 one arm for 120 s, then 1 µM Fab in HBS-EP+ for 120 s
Method: as §1

[5] = molecular target: CD3 antibody CE115HA146 (CE115HA146-F760mnP17/GLS3000-k0); assay: SPR (Biacore), 37 C; ligand antibody captured on SuRe protein A chip (1000 RU), Fab as analyte at 100 nM for 180 s; amount of binding per 1 RU of ligand
Chain of CD3 antibody CE115HA146 (CE115HA146-F760mnP17/GLS3000-k0) (heavy, as listed by the source): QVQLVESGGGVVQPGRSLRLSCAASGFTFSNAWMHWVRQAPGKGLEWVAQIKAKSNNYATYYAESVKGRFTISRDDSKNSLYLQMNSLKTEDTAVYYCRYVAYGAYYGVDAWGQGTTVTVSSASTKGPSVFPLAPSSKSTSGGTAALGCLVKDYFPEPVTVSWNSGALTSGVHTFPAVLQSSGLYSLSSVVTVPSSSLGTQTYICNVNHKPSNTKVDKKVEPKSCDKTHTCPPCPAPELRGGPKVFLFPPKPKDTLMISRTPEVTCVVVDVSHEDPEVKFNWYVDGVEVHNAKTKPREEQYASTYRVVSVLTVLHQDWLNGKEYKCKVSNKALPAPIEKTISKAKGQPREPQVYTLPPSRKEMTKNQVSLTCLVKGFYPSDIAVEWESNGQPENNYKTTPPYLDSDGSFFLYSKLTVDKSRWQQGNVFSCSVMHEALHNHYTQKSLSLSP
Method: as §2
(§4) First, to evaluate the binding specificity of the clamping antibodies, a ligand was reacted at 37° C. for 60 seconds at a flow rate of 10 μL/min to capture 1000 RU, and an analyte prepared at 100 nM was allowed to act for 180 seconds at a flow rate of 30 μL/min, and the amount of binding was measured.

[6] = molecular target: T4, CD3ε epitope-fused GPC3 antibody (hGC33VHGP01-rabCH1hG1m/hGC33VL-rabk); assay: as above
T4 construct: control for recognition of the peptide alone
T4 sequence (VH, as listed by the source, chain 1 of 2): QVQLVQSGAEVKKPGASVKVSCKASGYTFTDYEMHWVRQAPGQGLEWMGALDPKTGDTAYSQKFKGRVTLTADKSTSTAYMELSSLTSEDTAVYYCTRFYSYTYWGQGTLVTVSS
T4 sequence (VL, as listed by the source, chain 2 of 2): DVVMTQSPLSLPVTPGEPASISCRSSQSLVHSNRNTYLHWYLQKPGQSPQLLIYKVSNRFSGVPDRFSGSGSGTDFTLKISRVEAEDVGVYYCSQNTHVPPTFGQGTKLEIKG
Method: as §2, §4

[7] = molecular target: CD3 antibody CE115HA056 (CE115HA056-F760mnP17/GLS3000-k0); assay: as above
Chain of CD3 antibody CE115HA056 (CE115HA056-F760mnP17/GLS3000-k0) (heavy, as listed by the source): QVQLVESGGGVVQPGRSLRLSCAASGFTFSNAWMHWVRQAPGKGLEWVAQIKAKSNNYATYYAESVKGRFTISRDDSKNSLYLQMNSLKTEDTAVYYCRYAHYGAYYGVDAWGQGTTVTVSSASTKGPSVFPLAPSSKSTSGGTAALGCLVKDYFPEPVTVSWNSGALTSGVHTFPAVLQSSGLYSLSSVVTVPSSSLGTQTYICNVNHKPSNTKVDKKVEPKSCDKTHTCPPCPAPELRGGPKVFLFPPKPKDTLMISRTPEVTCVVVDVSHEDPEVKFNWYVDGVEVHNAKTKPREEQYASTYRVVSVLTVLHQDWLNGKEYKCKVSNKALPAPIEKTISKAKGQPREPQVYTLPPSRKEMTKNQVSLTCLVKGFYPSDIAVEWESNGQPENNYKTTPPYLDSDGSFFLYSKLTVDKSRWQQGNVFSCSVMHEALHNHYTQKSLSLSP
Method: as §2, §4

[8] = molecular target: CD3 antibody CE115HA000 (CE115HA000-F760mnP17/GLS3000-k0); assay: as above
Chain of CD3 antibody CE115HA000 (CE115HA000-F760mnP17/GLS3000-k0) (VH, as listed by the source, chain 1 of 2): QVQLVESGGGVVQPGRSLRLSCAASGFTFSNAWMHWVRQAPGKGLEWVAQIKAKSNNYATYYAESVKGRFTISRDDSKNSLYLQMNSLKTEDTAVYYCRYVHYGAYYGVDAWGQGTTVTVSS
Chain of CD3 antibody CE115HA000 (CE115HA000-F760mnP17/GLS3000-k0) (VL, as listed by the source, chain 2 of 2): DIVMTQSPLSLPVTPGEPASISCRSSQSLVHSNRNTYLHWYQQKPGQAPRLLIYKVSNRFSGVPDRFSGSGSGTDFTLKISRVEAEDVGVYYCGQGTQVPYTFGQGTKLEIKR
Method: as §2, §4

[9] = molecular target: T5, negative control IC17 (IC17Hdk-F760mnP17/IC17L-k0); assay: as above
T5 construct: also called anti-KLH antibody
Method: as §2, §4

Binder	binding result [1]	Kd [2] [nM]	Kd [3] [nM]	binding result [4]	binding result [5]	binding result [6]	binding result [7]	binding result [8]	binding result [9]
B1	no binding								
B2		150	110	no binding (tested: 1 µM)	no binding (tested: 100 nM)	no binding (tested: 100 nM)	no binding (tested: 100 nM)	no binding (tested: 100 nM)	no binding (tested: 100 nM)
